{
  "source": "paper PMC4174438",
  "target": "RtcA (RNA 3'-phosphate cyclase) (Pyrococcus horikoshii, UniProt O59198 1-341)",
  "sequence (O59198 whole entry)": "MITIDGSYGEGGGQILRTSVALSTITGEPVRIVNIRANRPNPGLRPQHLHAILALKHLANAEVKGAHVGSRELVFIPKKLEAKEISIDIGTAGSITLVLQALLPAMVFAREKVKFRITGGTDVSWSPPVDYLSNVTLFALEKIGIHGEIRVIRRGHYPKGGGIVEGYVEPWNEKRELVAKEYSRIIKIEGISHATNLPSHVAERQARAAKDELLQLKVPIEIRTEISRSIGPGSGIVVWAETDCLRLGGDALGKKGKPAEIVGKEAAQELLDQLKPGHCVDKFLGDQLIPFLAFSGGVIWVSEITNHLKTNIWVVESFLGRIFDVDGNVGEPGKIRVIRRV",
  "experiment": "EMSA",
  "data": [
    {"binder": "CGUUUU (ssRNA, 3'-phosphate)", "note": "[U6 6-mer RNA 3'-p]", "values": [
      {"measurement": "binding result", "value": "binds"}
    ]}
  ]
}
